Test results from patent US20160102137A1.

How the values were obtained:
Assay in all cases: cell-based or functional assay
[1] = biological target: HIV-1 envelope (Env) spike trimer of strain 6535.3 (HIV-1 strain 6535.3)
[2] = biological target: HIV-1 envelope (Env) spike trimer of strain CAP210 (HIV-1 strain CAP210)
[3] = biological target: HIV-1 envelope (Env) spike trimer of strain SC4226618 (HIV-1 strain SC4226618)

Row | Substance | neutralization potency (IC50) compared with 3BNC60 IgG against HIV-1 6535.3 [1] | neutralization potency compared with the mixture of Fabs plus dsDNA or the more potent of the two Fabs alone [2] | neutralization potency compared with the mixture of Fabs plus dsDNA or the more potent of the two Fabs alone [3]
1 | 3BNC60-62 bp-3BNC60 homo-diFab | 100 fold |  | 
2 | PG16-60 bp-b12 hetero-diFab (bispecific antibody) |  | 10 fold | 10 fold
